Numbering of substitutions follows the chain as printed.
B1: SEQ ID NO:1 (protein, listed as Pseudomonas fluorescens)
chain: MADLYENPMGLMGFEFIEFASPTPGTLEPIFEIMGFTKVATHRSKNVHLYRQGEINLILNNEPNSIASYFAAEHGPSVCGMAFRVKDSQKAYNRALELGAQPIHIDTGPMELNLPAIKGIGGAPLYLIDRFGEGSSIYDIDFVYLEGVERNPVGAGLKVIDHLTHNVYRGRMVYWANFYEKLFNFREARYFDIKGEYTGLTSKAMSAPDGMIRIPLNEESSKGAGQIEEFLMQFNGEGIQHVAFLTDDLVKTWDALKKIGMRFMTAPPDTYYEMLEGRLPDHGEPVDQLQARGILLDGSSVEGDKRLLLQIFSETLMGPVFFEFIQRKGDDGFGEGNFKALFESIERDQVRRGVLTAD
modifications: 4-hydroxyphenylpyruvate dioxygenase (HPPD; Pseudomonas fluorescens) (1)..(358)
B2: SEQ ID NO: 70: mutant PfHPPD: 213K 268A 270S 315Q 335P 336H 337S 340V 344Q 345M (protein)
chain: B1 chain with R213K, P268A, T270S, T315Q, E335P, G336H, N337S, A340V, S344Q, I345M
modifications: mutant HPPD polypeptide
notes: mutant PfHPPD: 213K 268A 270S 315Q 335P 336H 337S 340V 344Q 345M
B3: SEQ ID NO: 69: mutant PfHPPD: 268A 270S 315R 335P 336H 337S 340V 344Q 345M (protein)
chain: B1 chain with P268A, T270S, T315R, E335P, G336H, N337S, A340V, S344Q, I345M
modifications: mutant HPPD polypeptide
notes: mutant PfHPPD: 268A 270S 315R 335P 336H 337S 340V 344Q 345M

Columns and labels:
[1] = test system: soybean shoots; assay: selection of soybean shoots with tembotrione (greening/bleaching); assay type: in vivo; conditions: wild-type soybean shoots treated with tembotrione as selection marker
Excerpt: Soybean transformation was achieved by using methods well known in the art, such as the one described using the Agrobacterium tumefaciens mediated transformation soybean half-seed explants using essentially the method described by Paz et al. (2006), Plant cell Rep. 25:206. Transformants were identified by using the HPPD inhibitor herbicide “tembotrione” as selection marker. The appearance of green shoots was observed, and documented as an indicator of tolerance to the HPPD inhibitor herbicide tembotrione.

[2] = test system: HPPD polypeptides; assay: coupled HPPD activity assay: turnover and residual turnover in crude extracts; assay type: biochemical, Pseudomonas fluorescens; conditions: for turnover / residual turnover in the presence of Cmpd. 1 compared with a reference HPPD polypeptide, in words: comparison with the reference or parent polypeptide
[3] = test system: HPPD polypeptides; assay: as above; assay type: biochemical, Pseudomonas fluorescens; conditions: FIG. 2
[4] = test system: T0 soybean plants; assay: greenhouse spray test, leaf area damage score; assay type: in vivo; conditions: transgenic soybean T0 events, five days after Cmpd. 1 at 300 g AI/ha; for leaf area damage score, 25th percentile: scale 0 (no damage) to 100 (complete bleaching); for leaf area damage score, 75th percentile / leaf area damage score, 90th percentile / leaf area damage score, Median: scale 0-100
Excerpt: Tolerant green shoots were transferred to rooting media or grafted. Rooted plantlets were transferred to the greenhouse after an acclimation period. Plants containing the transgene were then sprayed with HPPD inhibitor herbicides, as for example with mesotrione at a rate of 300-600 g AI/ha, or with Cmpd. 1 (2-chloro-3-(methylsulfanyl)-N-(1-methyl-1H-tetrazol-5-yl)-4-(trifluoromethyl)-benzamide) at a rate of 150 g-300 g AI/ha supplemented with ammonium sulfate and methyl ester rapeseed oil. Five to ten days after the application, the symptoms due to the application of the herbicide were evaluated and compared to the symptoms observed on wild-type plants under the same conditions. For example, T0 soybean plants having a “plant expression cassette”, which includes an HPPD inhibitor tolerant HPPD polypeptide of the present invention, were tested towards the tolerance of Cmpd. 1. Prior greenhouse trials with the transgenic plants, soybean transformants were routinely analyzed for the expression and presence of the transgenes using the ELISA protein detection method (see detailed description under item D and H). Only plants recovering in the selection media and having a detectable HPPD transgene protein expression were used for the herbicide tolerance analysis. A DeVries Tracker Sprayer was calibrated prior to each spraying. The chemical formulation used for Cmpd. 1 was supplemented with ammonium sulfate and methylated rape seed oil. Spray tests were conducted with a concentration, which equals to 300 grams AI per hectare (300 g AI/ha).
In greenhouse trials, independent T0 soybean events containing an exemplary mutant HPPD polypeptide were sprayed with the HPPD inhibitor herbicide Cmpd. 1 (2-chloro-3-(methylsulfanyl)-N-(1-methyl-1H-tetrazol-5-yl)-4-(trifluoromethyl)benzamide) at the rate of 300 grams AI/ha, supplemented with ammonium sulfate and methyl ester rapeseed oil. Five days after the application, the leaf damaged area due to the HPPD inhibitor herbicide is scored in a scale from 0 (no damage) to 100 (complete bleaching). Under those conditions, the wild-type plants were completely bleached and their damage scores were in the 95-100 range.
Table 5 presents the distribution of the HPPD inhibitor herbicide damage score data as percentile for exemplary mutant HPPD inhibitor herbicide tolerant polypeptides (SEQ ID NOs). The percentiles normalize ranks of the damage score from an individual plant in a population. […] The median is the 50th percentile. Half the values had higher damage scores; half had lower damage scores. The value of the 75th and 90th percentile is the damage score where 75% and 90% of the soybean events had lower damage scores, respectively. The difference between the 75th and 25th percentile is called the interquartile range and a marker to quantify scattering in the population. All constructs had only one single cassette insertion in the soybean genome.

Molecule	effect on wild-type soybean shoots [1]	Residual turnover ([2]; presence of 100 μM Cmpd. 1, high substrate concentration, changes in absorbance (OD) at 320 nm)	mode of inhibition by HPPD inhibitor herbicides (time-course of inhibition) [3]	turnover / residual turnover in the presence of Cmpd. 1 compared with a reference HPPD polypeptide, in words [2]	leaf area damage score, 25th percentile [4]	leaf area damage score, 75th percentile [4]	leaf area damage score, 90th percentile [4]	leaf area damage score, Median [4]
CS(=O)(=O)c1ccc(C(=O)C2C(=O)CCCC2=O)c(Cl)c1COCC(F)(F)F [tembotrione, 2-[2-chloro-4-(methylsulfonyl)-3-[(2,2,2,-trifluoroethoxy)methyl]benzoyl]-1,3-cyclohexanedione]	entirely bleached	–	–	–	–	–	–	–
B1	–	0.021	slow and tight binding inhibitor	–	–	–	–	–
B2	–	–	–	increase significantly the turnover and the residual turnover	10.0	25.0	35.0	15.0
B3	–	–	–	increase significantly the turnover and the residual turnover	20.0	25.0	42.0	20.0

From patent US11180770B2, “HPPD variants and methods of use” (BASF Agricultural Solutions Seed US LLC, priority 2017, dated 2021)
